# Data from the supplement of paper PMC10567573.
# B1: KIAA0774 (parent)
# chain: FEDEVKRLGWQQQAELQELEERLQ
# Variants of: B1
# Assay: protein stability index of a GFP-peptide fusion (GPS, HEK-293T) (PSI 1-6); higher = more stable
# Conditions: c terminus: a fixed tail appended
# 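Also: lentivirally expressed fusions sorted by FACS into six bins by GFP to DsRed ratio, PSI derived from sequencing read proportions per bin multiplied by bin number.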
row,Variant,protein stability index
1,FEDEVKRLGWRQQAELQELEERLQ [Q11R],4.44
2,FEDEVKRLGWIQQAELQELEERLQ [Q11I],3.88
3,FEDEVKRLGWPQQAELQELEERLQ [Q11P],4.57
4,FEDEVKRLGWNQQAELQELEERLQ [Q11N],4.52
5,FEDEVKRLGWDQQAELQELEERLQ [Q11D],5.16
6,FEDEVKRLVWQQQAELQELEERLQ [G9V],4.02
7,FEDEVKRLCWQQQAELQELEERLQ [G9C],3.36
8,FEDEVKRLNWQQQAELQELEERLQ [G9N],2.62
9,FEDEVKRLMWQQQAELQELEERLQ [G9M],3.13
10,FEDEVKRLRWQQQAELQELEERLQ [G9R],3.75
11,FEDEVKRLEWQQQAELQELEERLQ [G9E],4.63
12,FEDEVKRLFWQQQAELQELEERLQ [G9F],3.96
13,FEDEVKRLYWQQQAELQELEERLQ [G9Y],4.13
14,FEDEVKRLHWQQQAELQELEERLQ [G9H],4.11
15,FEDEVKRLLWQQQAELQELEERLQ [G9L],3.15
16,FEDEVKRLPWQQQAELQELEERLQ [G9P],4.17
17,FEDEVKRLQWQQQAELQELEERLQ [G9Q],3.83
18,FEDEVKRLDWQQQAELQELEERLQ [G9D],3.9
19,FEDEVKRLTWQQQAELQELEERLQ [G9T],2.04
20,FEDEVKRLIWQQQAELQELEERLQ [G9I],3.73
21,FEDEVKRLAWQQQAELQELEERLQ [G9A],3.83
22,FEDEVKRLSWQQQAELQELEERLQ [G9S],1.91
23,FEDEVKRLKWQQQAELQELEERLQ [G9K],3.23
24,FEDEVKRLWWQQQAELQELEERLQ [G9W],3.54

row,Variant,protein stability index
1,FEDEVKRLGWQQQAALQELEERLQ [E15A],2.74
2,FEDEVKRLGWQQQANLQELEERLQ [E15N],4.51
3,FEDEVKRLGWQQQAGLQELEERLQ [E15G],3.85
4,FEDEVKRLGWQQQAYLQELEERLQ [E15Y],2.65
5,FEDEVKRLGWQQQAILQELEERLQ [E15I],2.64
6,FEDEVKRLGWQQQAWLQELEERLQ [E15W],2.85
7,FEDEVKRLGWQQQARLQELEERLQ [E15R],2.92
8,FEDEVKRLGWQQQACLQELEERLQ [E15C],3.39
9,FEDEVKRLGWQQQATLQELEERLQ [E15T],3.87
10,FEDEVKRLGWQQQADLQELEERLQ [E15D],4.46
11,FEDEVKRLGWQQQALLQELEERLQ [E15L],3.13
12,FEDEVKRLGWQQQAPLQELEERLQ [E15P],3.71
13,FEDEVKRLGWQQQAFLQELEERLQ [E15F],2.42
14,FEDEVKRLGWQQQAMLQELEERLQ [E15M],3.32
15,FEDEVKRLGWQQQAKLQELEERLQ [E15K],3.2
16,FEDEVKRLGWQQQASLQELEERLQ [E15S],4.05
17,FEDEVKRLGWQQQAVLQELEERLQ [E15V],3.65
18,FEDEVKRLGWQQQAHLQELEERLQ [E15H],3.53
19,FEDEVKRLGPQQQAELQELEERLQ [W10P],5.11
20,FEDEVKRLGEQQQAELQELEERLQ [W10E],5.57
21,FEDEVKRLGGQQQAELQELEERLQ [W10G],5.07
22,FEDEVKRLGFQQQAELQELEERLQ [W10F],4.41
23,FEDEVKRLGYQQQAELQELEERLQ [W10Y],4.86
24,FEDEVKRLGAQQQAELQELEERLQ [W10A],5.49

row,Variant,protein stability index
1,FEDEVKRLGRQQQAELQELEERLQ [W10R],5.5
2,FEDEVKRLGKQQQAELQELEERLQ [W10K],5.13
3,FEDEVKRLGSQQQAELQELEERLQ [W10S],4.84
4,FEDEVKRLGVQQQAELQELEERLQ [W10V],4.69
5,FEDEVKRLGIQQQAELQELEERLQ [W10I],4.66
6,FEDEVKRLGDQQQAELQELEERLQ [W10D],5.8
7,FEDEVKRLGTQQQAELQELEERLQ [W10T],5.13
8,FEDEVKRLGHQQQAELQELEERLQ [W10H],5.09
9,FEDEVKRLGNQQQAELQELEERLQ [W10N],5.54
10,FEDEVKRLGCQQQAELQELEERLQ [W10C],4.97
11,FEDEVKRLGLQQQAELQELEERLQ [W10L],5.35
12,FEDEVKRLGMQQQAELQELEERLQ [W10M],5.65
13,FEDEVKRLGQQQQAELQELEERLQ [W10Q],5.71
14,FEDEVKRLGWQQQCELQELEERLQ [A14C],3
15,FEDEVKRLGWQQQGELQELEERLQ [A14G],5.26
16,FEDEVKRLGWQQQEELQELEERLQ [A14E],5.64
17,FEDEVKRLGWQQQHELQELEERLQ [A14H],4.27
18,FEDEVKRLGWQQQRELQELEERLQ [A14R],4.7
19,FEDEVKRLGWQQQSELQELEERLQ [A14S],4.44
20,FEDEVKRLGWQQQLELQELEERLQ [A14L],1.85
21,FEDEVKRLGWQQQQELQELEERLQ [A14Q],4.61
22,FEDEVKRLGWQQQWELQELEERLQ [A14W],2.53
23,FEDEVKRLGWQQQDELQELEERLQ [A14D],5.2
24,FEDEVKRLGWQQQPELQELEERLQ [A14P],5.4

row,Variant,protein stability index
1,FEDEVKRLGWQQQYELQELEERLQ [A14Y],2.29
2,FEDEVKRLGWQQQFELQELEERLQ [A14F],2.63
3,FEDEVKRLGWQQQIELQELEERLQ [A14I],1.73
4,FEDEVKRLGWQQQNELQELEERLQ [A14N],4.64
5,FEDEVKRLGWQQQTELQELEERLQ [A14T],2.53
6,FEDEVKRLGWQQQKELQELEERLQ [A14K],5.32
7,FEDEVKRLGWQQQMELQELEERLQ [A14M],4.37
8,FEDEVKRLGWQQQAENQELEERLQ [L16N],4.87
9,FEDEVKRLGWQQQAEGQELEERLQ [L16G],5.23
10,FEDEVKRLGWQQQAEIQELEERLQ [L16I],3.89
11,FEDEVKRLGWQQQAEPQELEERLQ [L16P],5.24
12,FEDEVKRLGWQQQAEFQELEERLQ [L16F],4.15
13,FEDEVKRLGWQQQAESQELEERLQ [L16S],4.91
14,FEDEVKRLGWQQQAECQELEERLQ [L16C],4.75
15,FEDEVKRLGWQQQAEKQELEERLQ [L16K],4.88
16,FEDEVKRLGWQQQAEAQELEERLQ [L16A],4.34
17,FEDEVKRLGWQQQAEMQELEERLQ [L16M],4.48
18,FEDEVKRLGWQQQAEEQELEERLQ [L16E],5.1
19,FEDEVKRLGWQQQAEHQELEERLQ [L16H],4.84
20,FEDEVKRLGWQQQAERQELEERLQ [L16R],4.04
21,FEDEVKRLGWQQQAEQQELEERLQ [L16Q],4.09
22,FEDEVKRLGWQQQAEDQELEERLQ [L16D],5.11
